The values below come from patent publication US6475744 (GENERAL HOSPITAL CORPORATION A MASSACHUSETTS, dated 2002).

The labels stand for the following.
B3: mTIM-V5 (other, not shown: small tags and cut ends)
chain: MDLYMMNCELLATCSALGYLEGGTYHKEPDCLESVKDLIRYLRHEDETRDVRQQLGAAQILQSDLLPILTQHRQDKPLFDAVIRLMVNLTQPALLCFGSVPKDSSVRHHFLQVLTYLQAYKEAFASEKAFGVLSETLYELLQLGWEDRQEEDNLLIERILLLVRNILHVPANLEQEKSIDDDASIHDRLLWAIHLSGMDDLLLFLSSSSAEQQWSLHVLEIISLMFRDQTPEQLAGVGQGRLAQERSTDVAELEVLRQREMAEKRARALQRGNRHSRFGGSYIVQGLKSIGEKDVVFHKGLHNLQNYSSDLGKQPRRVPKRRQAAQELSVHRRSVLNVRLFLRDFCSEFLENCYNPLMGAVKDHLLRERAQQHDETYYMWAMAFFMAFNRAATFRPGLVSETLSIRTFHFVEQNLTNYYEMMLTDRKEAASWARRMHLALKAYQELLATVNEMDMCPDEAVRESSRIIKNNIFYMMEYRELFLALFRKFDERYHPRSFLRDLVETTHLFLKMLERFCRSRGNLMVQNKRKKRKKKKKVQDQGVAFSQSPGELEAMWPALAEQLLQCAQDPELSVDPVVPFDAASEVPVEEQRVEAMVRIQDCLTAGQAPQALALLRSAREVWPEGNAFGSPVISPGEEMQLLKQILSTPLPRQQEPEEGDAEEEEEEEEEEELQVVQVSEKEFNFLEYLKRFASSTIVRAYVLLLRSYRQNSAHTNHCIAKMLHRLAHGLGMEALLFQLSLFCLFNRLLSDPAAAAYKELVTFAKYIIGKFFALAAVNQKAFVELLFWKNTAVVREMTQGYGSLDSGSSSHRAPLWSPEEEAQLQELYLAHKDVEGQDVVETILAHLKVVPRTRKQVIHHLVRMGLADSVKEFQKRKGTQIVLWTEDQELELQRLFEEFRDSDDVLGQIMKNITAKRSRARVVDKLLALGLVSERRQLYKKRRKKLAPSCMQNGEKSPRDPWQEDPEEEDEHLPEDESEDEESEEGLPSGQGQGSSSLSAENLGESLRQEGLSAPLLWLQSSLIRAANDREEDGCSQAIPLVPLTEENEEAMENEQFQHLLRKLGIRPPSSGQETFWRIPAKLSSTQLRRVAASLSQQENEEEREEEPEPGVPGEQGPSEEHRTEALRALLSARKRKAGLGPTEEEATGEEEWNSAPKKRQLLDSDEEEDDEGRRQAVSGTPRVHRKKRFQIEDEDD
notes: the construct was made from the coding region of AF071506; Printed once as 'mTIM-VS', read as V5; also called mTIM-VS

For the assay “mTIM-V5”, the target named is B3. Description: co-immunoprecipitation from co-transfected COS7 cells, anti-HA IP, anti-V5 blot. As for the experimental part: (§1) Subsequently, the beads were washed four times (400 μl binding buffer for 10 min. per wash), mixed with 5 μl of 4×sodium dodecyl sulfate (SDS) gel loading buffer, boiled, and centrifuged. The supernatant was analyzed by SDS-polyacrylamide gel electrophoresis (PAGE) and western blotted as follows. Total protein (5 μg) from COS7 cells was extracted as described above, separated by SDS-PAGE, and transferred to a nitrocellulose membrane using a semi-dry blotting apparatus. Membranes were blocked with 5% non-fat milk. Blots were incubated with either the mouse anti-HA antibody (1:10,000) or the mouse anti-V5 antibody (1:5,000) overnight at 4EC. A goat anti-mouse horseradish peroxidase secondary antibody (1:10,000) was used in combination with enhanced chemiluminescence (NEN) to detect proteins.
(§2) Following detection of epitope-tagged proteins with one antibody, the blots were stripped in stripping buffer (62.5 mM Tris-HCl (pH 6.7), 100 mM 2-mercaptoethanol, 2% SDS) at 50EC for 30 minutes. The membrane was washed extensively (20 mM Tris, pH 7.6, 137 mM NaCl, 0.05% Tween-20) then blocked again and processed for detection of the second epitope-tagged protein.

Another assay has as its target T1, βgalactosidase (UniProt P00722 1-1024 = β-galactosidase, limits assumed).
T1 construct: Construct not described; also called specificity control
Put plainly: co-immunoprecipitation from co-transfected COS7 cells, anti-HA IP.

The target of another assay is T2, mPER1-HA (mouse, UniProt O35973 1-1291).
T2 construct: Expressed in COS7 cells; used in place of mPER3-HA in co-immunoprecipitation
Put plainly: co-immunoprecipitation from co-transfected COS7 cells, anti-HA IP, anti-V5 blot. As for the experimental part: as §1, §2

T2 sequence (O35973 whole entry): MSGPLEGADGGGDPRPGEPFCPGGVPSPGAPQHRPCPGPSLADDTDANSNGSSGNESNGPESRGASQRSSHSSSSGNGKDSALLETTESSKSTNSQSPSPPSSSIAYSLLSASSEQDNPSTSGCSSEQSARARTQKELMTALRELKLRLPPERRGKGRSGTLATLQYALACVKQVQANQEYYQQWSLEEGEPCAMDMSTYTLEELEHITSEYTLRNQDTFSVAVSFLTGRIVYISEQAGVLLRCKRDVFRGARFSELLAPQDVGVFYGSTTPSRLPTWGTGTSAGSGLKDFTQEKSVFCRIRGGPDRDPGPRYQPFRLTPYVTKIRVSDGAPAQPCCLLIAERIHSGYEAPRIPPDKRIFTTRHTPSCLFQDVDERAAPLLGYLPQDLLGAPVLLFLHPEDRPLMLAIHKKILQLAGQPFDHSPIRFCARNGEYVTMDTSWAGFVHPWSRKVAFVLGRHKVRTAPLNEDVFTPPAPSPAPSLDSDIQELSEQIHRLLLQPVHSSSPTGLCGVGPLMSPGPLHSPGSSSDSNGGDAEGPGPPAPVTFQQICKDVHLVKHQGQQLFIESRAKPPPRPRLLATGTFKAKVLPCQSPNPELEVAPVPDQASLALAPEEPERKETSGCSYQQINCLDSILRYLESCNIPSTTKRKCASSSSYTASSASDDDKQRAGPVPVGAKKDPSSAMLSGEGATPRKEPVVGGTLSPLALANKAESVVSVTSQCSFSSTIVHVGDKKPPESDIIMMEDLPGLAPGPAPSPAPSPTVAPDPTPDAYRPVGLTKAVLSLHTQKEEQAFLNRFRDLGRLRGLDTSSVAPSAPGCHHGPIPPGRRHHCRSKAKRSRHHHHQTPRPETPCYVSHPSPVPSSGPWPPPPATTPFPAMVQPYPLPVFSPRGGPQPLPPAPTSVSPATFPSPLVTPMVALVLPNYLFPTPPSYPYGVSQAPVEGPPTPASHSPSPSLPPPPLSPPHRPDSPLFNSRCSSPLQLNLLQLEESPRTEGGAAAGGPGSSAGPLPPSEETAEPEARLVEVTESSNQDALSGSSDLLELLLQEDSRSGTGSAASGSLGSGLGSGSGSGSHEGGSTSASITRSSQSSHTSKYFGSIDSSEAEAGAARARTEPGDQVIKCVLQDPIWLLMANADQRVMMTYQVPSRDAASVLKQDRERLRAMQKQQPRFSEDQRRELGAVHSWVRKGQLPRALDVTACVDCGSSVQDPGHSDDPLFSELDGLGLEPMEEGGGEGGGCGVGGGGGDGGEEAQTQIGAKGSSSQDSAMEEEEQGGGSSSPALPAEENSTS
T1 sequence (P00722 whole entry): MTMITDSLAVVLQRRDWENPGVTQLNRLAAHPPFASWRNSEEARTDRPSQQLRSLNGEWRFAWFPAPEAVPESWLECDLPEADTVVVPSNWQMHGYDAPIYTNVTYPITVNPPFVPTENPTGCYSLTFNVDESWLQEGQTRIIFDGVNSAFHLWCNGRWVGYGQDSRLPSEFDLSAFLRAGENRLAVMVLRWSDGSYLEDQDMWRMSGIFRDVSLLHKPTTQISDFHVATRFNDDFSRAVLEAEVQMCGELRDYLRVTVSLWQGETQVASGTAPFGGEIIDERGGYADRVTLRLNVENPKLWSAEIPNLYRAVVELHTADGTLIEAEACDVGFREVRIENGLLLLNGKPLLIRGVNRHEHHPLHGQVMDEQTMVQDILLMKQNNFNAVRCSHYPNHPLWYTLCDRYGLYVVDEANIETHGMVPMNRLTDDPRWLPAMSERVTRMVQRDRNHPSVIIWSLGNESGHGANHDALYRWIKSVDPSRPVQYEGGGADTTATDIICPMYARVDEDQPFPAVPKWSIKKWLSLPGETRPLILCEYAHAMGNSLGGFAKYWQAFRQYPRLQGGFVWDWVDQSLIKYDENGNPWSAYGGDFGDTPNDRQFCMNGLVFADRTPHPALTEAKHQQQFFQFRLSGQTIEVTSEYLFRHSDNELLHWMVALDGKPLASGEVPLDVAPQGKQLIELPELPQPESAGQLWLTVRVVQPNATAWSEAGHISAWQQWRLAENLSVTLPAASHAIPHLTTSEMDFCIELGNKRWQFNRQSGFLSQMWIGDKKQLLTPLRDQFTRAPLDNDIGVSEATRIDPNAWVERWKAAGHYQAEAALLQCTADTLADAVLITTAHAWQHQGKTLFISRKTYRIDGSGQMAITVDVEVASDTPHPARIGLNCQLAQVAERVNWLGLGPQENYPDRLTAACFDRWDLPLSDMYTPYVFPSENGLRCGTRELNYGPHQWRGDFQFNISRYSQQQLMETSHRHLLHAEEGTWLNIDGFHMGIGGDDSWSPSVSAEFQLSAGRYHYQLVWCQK

B1: mPER3-HA (other, mouse, UniProt O70361 1-1113, looked up, not shown: small tags and cut ends)
chain: MDPCGDPAVPGGDCPQTRGPGLQGASGQEGPLQGTCVDSSHSEHEDRNRMSEELIMVVQEMKKYFPAERHTKPSTLDALNYALRCVHSVQANSDFFQSLGPRGAHQADVTVYSLEDLTALASEHTSKNTDTFAAVFSFLSGRLVHISEQAALILNSKRGFLKSVHFVDLLAPQDVRAFYAHTAPTQLPFWNNWTQRASQYECAPAKPFFCRICGGGDREKRHYSPFRILPYLVHVHSSAQPEPEPCCLTLVEKIHSGYEAPRIPVDKRIFTTTHTPGCVFLEVDERAVPLLGYLPQDLIGTSILTYLHPEDRPLMVAIHQKVLKYAGHPPFEHSPVRFCTQNGEYVILDSSWSSFVNPWSRKVSFIIGRHKVRTSPLNEDVFATRIKKAASNDKDIAELQEQIHKLLLQPVHASASSGYGSLGSSGSQEQHVSITSSSESSGHCPEEGQHEQMTLQQVYASVNKIKNVGQQLYIESMARSSVKPVAETCVEPQGGDEQKDFSSSQTLKNKSTTDTGSGGNLQQEQPSSSYQQMNCIDSVIRYLTSYSLPALKRKCISCTNTSSSSEEAKPIPEVDSSQRDTEQLLDIRKQETTGPSTDIEGGAARTLSTAALSVASGISQCSCSSTSGHAPPLQSESVAVACKPWALRTKASHLAAGGFKHVGLTAAVLSAHTQKEEQNYVDRFREKILTSPYGCYLQQESRNRAQYSCVQAGSTAKHSRCAGSERQKHKRKKLPAPVDTSSPGAHLCPHVTGLLPDEQHWGPSASPSPLGAGLAFPSALVVPSQTPYLLPSFPLQDMASQGVGVSAAWGAAAGCPPLSAGPQAVAAFPSAYVDTLMTIFLHNAPLFPLWPPSFSPYPSLGAAGSSELAPLVPAMAPNPEPTTSGHSQRRVEENWEAHSEELPFISSRSSSPLQLNLLQEEMPAPSESADAVRRGAGPDAKHHCVTGPSGSRSRHCTSGELATATAQQESAAASGSSASSIYFSSTDYASEVSENRQRPQDRQRDEALPGAAEESIWRMIERTPECVLMTYQVPERGREEVLKQDLEKLQSMEQQQPLFSPAQREELAKVRSWIHSHTAPQEGHLQSCVACEDRGSVGDTAEVLEQHPAEDTS
notes: Expressed in COS7 cells from pcDNA 3.1; immunoprecipitated with anti-HA antibody
For B1, the binding result with mTIM-V5 is given as “no binding”.

B2: mCRY1-HA (other, mouse, UniProt P97784 1-606, looked up, not shown: small tags and cut ends)
chain: MGVNAVHWFRKGLRLHDNPALKECIQGADTIRCVYILDPWFAGSSNVGINRWRFLLQCLEDLDANLRKLNSRLFVIRGQPADVFPRLFKEWNITKLSIEYDSEPFGKERDAAIKKLATEAGVEVIVRISHTLYDLDKIIELNGGQPPLTYKRFQTLVSKMEPLEMPADTITSDVIGKCMTPLSDDHDEKYGVPSLEELGFDTDGLSSAVWPGGETEALTRLERHLERKAWVANFERPRMNANSLLASPTGLSPYLRFGCLSCRLFYFKLTDLYKKVKKNSSPPLSLYGQLLWREFFYTAATNNPRFDKMEGNPICVQIPWDKNPEALAKWAEGRTGFPWIDAIMTQLRQEGWIHHLARHAVACFLTRGDLWISWEEGMKVFEELLLDADWSINAGSWMWLSCSSFFQQFFHCYCPVGFGRRTDPNGDYIRRYLPVLRGFPAKYIYDPWNAPEGIQKVAKCLIGVNYPKPMVNHAEASRLNIERMKQIYQQLSRYRGLGLLASVPSNSNGNGGLMGYAPGENVPSCSSSGNGGLMGYAPGENVPSCSGGNCSQGSGILHYAHGDSQQTHSLKQGRSSAGTGLSSGKRPSQEEDAQSVGPKVQRQSSN
With B2, the binding result with βgalactosidase was “no binding”. In the case of B3, the binding result with mPER1-HA was “no binding”.
